Positions count from the first letter of the chain named. In names and notes the source's numbering stands.
B1: PrfA L140F (natural protein)
chain: MNAQAEEFKKYLETNGIKPKQFHKKELIFNQWDPQEYCIFLYDGITKLTSISENGTIMNLQYYKGAFVIMSGFIDTETSVGYYNLEVISEQATAYVIKINELKELLSKNLTHFFYVFQTLQKQVSYSLAKFNDFSINGKFGSICGQLLILTYVYGKETPDGIKITLDNLTMQELGYSSGIAHSSAVSRIISKLKQEKVIVYKNSCFYVQNLDYLKRYAPKLDEWFYLACPATWGKLN
B2: PrfA Y63C (natural protein)
chain: B1 chain with Y63C, F140L
B3: wild-type PrfA (positive regulatory factor A) (natural protein)
chain: B1 chain with F140L

Target: the molecule itself
Assay: cross-linking

Row | Protein | binding result | stoichiometry N
1 | B1 | binds | 
2 | B2 | binds | 
3 | B3 |  | 2
